Here are results for one substance from patent publication US20250282852A1.

By Kd is commonly meant the equilibrium constant for the complex coming apart. High values mean lower affinity, low ones higher affinity. A word on the koff: it is the first-order rate constant of dissociation. One may read the kon as a measure of how fast the partners come together. Read a high kon as faster complex formation.

In experiment [1] the target is biotinylated oligomeric Aβ1-42 (UniProt P05067). Put plainly: Octet 96e (printed as 'SPR system'), biotinylated oligomeric Aβ1-42 on streptavidin biosensor, CD22 extracellular domain at various concentrations in solution. Background: In BLI a coated tip is dipped into the sample, and binding shifts an interference pattern.
For experiment [2] the target is unchanged. Kind of experiment: Octet biolayer interferometry, biotinylated oligomeric Aβ on streptavidin biosensor, hCD22-His in solution.

“extracellular domain of CD22 (Sino Biological) (receptor)” had a Kd in experiment [1] of 2.79 nM. Further, in experiment [2], the koff worked out at 0.000522 s⁻¹ and the on-rate (kon) was 186000 M⁻¹ s⁻¹.
